These results are taken from PMC3829608 (Molecular cancer therapeutics, 2012).

The test system of data set [1] is A431 cells. Put plainly: Uptake in A431 cells with EGF stimulation. It counts as cell-based, human. Particulars: A431 cells in the presence of the EGF ligand.
Data set [2] has as its system U87-MG orthotopic brain tumors. Nature of the data set: Live animal FMT imaging of orthotopic U87-MG brain tumors. The format is in vivo, mice. Particulars: representative FMT 3-dimensional reconstruction, matching ROIs, 1 nmol/g.
Experiment in data set [3]: as above
It counts as in vivo, mice. Conditions: mouse, in vivo, iv, 1 nmol/g.

The subject of data set [4] is Gli36Δ5 orthotopic brain tumors. Put plainly: Live animal FMT imaging of orthotopic Gli36Δ5 brain tumors. Conditions: representative FMT 3-dimensional reconstruction, matching ROIs, 1 nmol/g. It counts as in vivo, mice.
Experiment in data set [5]: as above
Conditions: mouse, in vivo, iv, 1 nmol/g. The format is in vivo, mice.

For data set [6], the target named is T1, EGFR (Homo sapiens, UniProt P00533). Put plainly: Saturation binding assay on Gli36Δ5 cells.
In data set [7] the target is T1, EGFR. Particulars: radioligand binding assays; cited from earlier work.

“Also recorded” adds a separate entry of the source.

As for `CC[C@H](C)[C@H](NC(=O)[C@@H](NC(=O)[C@H](CC(N)=O)NC(=O)[C@H](CCC(N)=O)NC(=O)[C@@H]1CCCN1C(=O)[C@@H](NC(=O)[C@H](Cc1ccc(O)cc1)NC(=O)CNC(=O)[C@H](Cc1ccc(O)cc1)NC(=O)[C@H](Cc1c[nH]c2ccccc12)NC(=O)[C@H](Cc1c[nH]cn1)NC(=O)[C@H](Cc1ccc(O)cc1)NC(=O)COCCOCCNC(=O)CCCCCN1C(=CC=CC=CC2=[N+](CC)c3ccc4c(S(=O)(=O)[O-])cc(S(=O)(=O)O)cc4c3C2(C)C)C(C)(C)c2c1ccc1c(S(=O)(=O)O)cc(S(=O)(=O)O)cc21)[C@@H](C)O)C(C)C)C(N)=O` [Compound 2], in data set [1], the “Uptake in A431 cells on stimulation with EGF” value is “increasing fluorescence; also recorded: increased the level of uptake”. Besides, the “Amount of fluorescence in ROI, U87-MG” value in data set [2] is given as 1,608 nmol/L. In addition, the tissue uptake dose at 1 h in data set [3] came to 0.27 %ID; in data set [5] it was 1.1 %ID. In data set [4], the “Amount of fluorescence in ROI, Gli36Δ5” value is on record as 9,271 nmol/L.
Turning to “Cy5.5-(AEEA)2-YHWYGYTPQNVI-amide [Compound 3]”, the “Affinity for the cells (in words)” value in data set [6] was “micromolar range”.
Turning to “Cy5.5-(AEEA)3-YHWYGYTPQNVI-amide [Compound 4]”, the “Affinity for the cells (in words)” value in data set [6] was “micromolar range”.
As for Cy5.5-YHWYGYTPQNVI-amide [Compound 1], in data set [6], the “Affinity for the cells (in words)” value is reported as “micromolar range”.
YHWYGYTPQNVI [GE11]: the “Binding affinity for EGFR (in words)” value in data set [7] is “nanomolar range”.
